Assay results as given in PMC8967028.

Target: SARS-CoV-1 spike (S) receptor binding domain (SARS-CoV-1)
Test: SPR

parental VHH-72-Fc (Fc fusion)
koff: 0.00021 s⁻¹
